B1: Speckle-type POZ protein (Homo sapiens), O43791 (parent)
chain: MSRVPSPPPPAEMSSGPVAESWCYTQIKVVKFSYMWTINNFSFCREEMGEVIKSSTFSSGANDKLKWCLRVNPKGLDEESKDYLSLYLLLVSCPKSEVRAKFKFSILNAKGEETKAMESQRAYRFVQGKDWGFKKFIRRDFLLDEANGLLPDDKLTLFCEVSVVQDSVNISGQNTMNMVKVPECRLADELGGLWENSRFTDCCLCVAGQEFQAHKAILAARSPVFSAMFEHEMEESKKNRVEINDVEPEVFKEMMCFIYTGKAPNLDKMADDLLAAADKYALERLKVMCEDALCSNLSVENAAEILILADLHSADQLKTQAVDFINYHASDVLETSGWKSMVVSHPHLVAEAYRSLASAQCPFLGPPRKRLKQS
partner: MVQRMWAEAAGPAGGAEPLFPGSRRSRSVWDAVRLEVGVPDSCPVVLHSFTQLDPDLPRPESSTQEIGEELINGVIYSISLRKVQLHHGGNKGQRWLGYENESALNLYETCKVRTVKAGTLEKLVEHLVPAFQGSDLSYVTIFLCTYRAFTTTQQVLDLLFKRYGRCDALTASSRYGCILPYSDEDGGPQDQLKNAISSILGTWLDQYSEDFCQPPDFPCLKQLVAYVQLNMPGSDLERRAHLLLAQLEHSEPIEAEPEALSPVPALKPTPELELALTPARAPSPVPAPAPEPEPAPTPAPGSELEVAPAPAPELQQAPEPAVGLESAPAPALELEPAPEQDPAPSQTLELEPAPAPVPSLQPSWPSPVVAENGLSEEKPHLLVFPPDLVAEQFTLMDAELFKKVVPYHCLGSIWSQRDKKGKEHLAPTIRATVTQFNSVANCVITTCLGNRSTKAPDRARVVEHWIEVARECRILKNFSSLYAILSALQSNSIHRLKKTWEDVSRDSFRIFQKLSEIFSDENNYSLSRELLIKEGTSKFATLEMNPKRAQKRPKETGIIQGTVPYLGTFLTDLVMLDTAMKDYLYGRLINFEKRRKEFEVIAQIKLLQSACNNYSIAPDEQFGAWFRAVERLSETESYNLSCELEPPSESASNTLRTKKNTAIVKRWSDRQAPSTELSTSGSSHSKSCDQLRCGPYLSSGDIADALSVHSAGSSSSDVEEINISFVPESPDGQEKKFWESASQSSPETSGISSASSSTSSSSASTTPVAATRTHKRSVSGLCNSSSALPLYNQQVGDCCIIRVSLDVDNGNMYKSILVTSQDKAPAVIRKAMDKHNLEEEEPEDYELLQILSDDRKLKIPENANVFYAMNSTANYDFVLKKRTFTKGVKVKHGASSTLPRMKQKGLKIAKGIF
B2: Speckle-type POZ protein (Homo sapiens), O43791 (parent)
chain: B1 chain
partner: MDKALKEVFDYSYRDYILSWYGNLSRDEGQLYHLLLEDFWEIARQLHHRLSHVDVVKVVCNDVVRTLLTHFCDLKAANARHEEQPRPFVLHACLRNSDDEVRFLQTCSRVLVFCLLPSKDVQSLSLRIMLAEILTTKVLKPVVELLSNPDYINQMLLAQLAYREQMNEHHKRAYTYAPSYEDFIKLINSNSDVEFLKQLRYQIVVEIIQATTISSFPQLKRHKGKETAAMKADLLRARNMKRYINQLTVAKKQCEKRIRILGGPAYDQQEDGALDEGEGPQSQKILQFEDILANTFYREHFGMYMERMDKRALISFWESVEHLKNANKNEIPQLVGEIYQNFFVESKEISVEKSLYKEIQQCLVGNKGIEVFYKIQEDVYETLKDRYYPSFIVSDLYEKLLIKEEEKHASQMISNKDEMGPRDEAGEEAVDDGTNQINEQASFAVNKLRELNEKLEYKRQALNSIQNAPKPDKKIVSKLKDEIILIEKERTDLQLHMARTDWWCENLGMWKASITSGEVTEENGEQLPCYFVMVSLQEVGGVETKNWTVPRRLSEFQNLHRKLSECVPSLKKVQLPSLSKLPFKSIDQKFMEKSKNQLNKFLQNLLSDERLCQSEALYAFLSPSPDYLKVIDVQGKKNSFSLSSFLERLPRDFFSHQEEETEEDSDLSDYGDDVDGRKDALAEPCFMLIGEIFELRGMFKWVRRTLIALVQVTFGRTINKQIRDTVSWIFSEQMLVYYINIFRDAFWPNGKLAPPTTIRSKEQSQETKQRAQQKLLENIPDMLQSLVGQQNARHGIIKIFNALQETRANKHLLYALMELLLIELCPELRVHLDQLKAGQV
B3: Speckle-type POZ protein (Homo sapiens), O43791 (parent)
chain: B1 chain
partner: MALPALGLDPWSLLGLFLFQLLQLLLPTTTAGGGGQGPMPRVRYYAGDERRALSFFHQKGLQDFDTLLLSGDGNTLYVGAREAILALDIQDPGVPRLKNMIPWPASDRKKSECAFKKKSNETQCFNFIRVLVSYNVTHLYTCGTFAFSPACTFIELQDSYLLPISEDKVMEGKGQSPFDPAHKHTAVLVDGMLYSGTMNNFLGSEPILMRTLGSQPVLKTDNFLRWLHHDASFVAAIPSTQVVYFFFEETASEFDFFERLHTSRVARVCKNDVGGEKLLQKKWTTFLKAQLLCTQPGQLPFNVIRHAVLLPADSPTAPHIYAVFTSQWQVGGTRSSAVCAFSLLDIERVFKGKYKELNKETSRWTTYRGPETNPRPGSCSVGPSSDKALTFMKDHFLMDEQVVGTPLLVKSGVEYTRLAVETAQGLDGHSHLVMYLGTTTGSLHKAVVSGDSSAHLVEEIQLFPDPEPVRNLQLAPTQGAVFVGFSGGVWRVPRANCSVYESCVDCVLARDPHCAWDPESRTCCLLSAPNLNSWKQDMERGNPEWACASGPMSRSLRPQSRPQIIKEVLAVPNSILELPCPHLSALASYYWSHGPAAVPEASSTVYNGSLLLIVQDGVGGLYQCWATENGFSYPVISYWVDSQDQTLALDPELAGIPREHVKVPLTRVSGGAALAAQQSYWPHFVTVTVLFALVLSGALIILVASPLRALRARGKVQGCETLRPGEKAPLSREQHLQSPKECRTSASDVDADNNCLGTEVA
B4: Speckle-type POZ protein (Homo sapiens), O43791 (parent)
chain: B1 chain
partner: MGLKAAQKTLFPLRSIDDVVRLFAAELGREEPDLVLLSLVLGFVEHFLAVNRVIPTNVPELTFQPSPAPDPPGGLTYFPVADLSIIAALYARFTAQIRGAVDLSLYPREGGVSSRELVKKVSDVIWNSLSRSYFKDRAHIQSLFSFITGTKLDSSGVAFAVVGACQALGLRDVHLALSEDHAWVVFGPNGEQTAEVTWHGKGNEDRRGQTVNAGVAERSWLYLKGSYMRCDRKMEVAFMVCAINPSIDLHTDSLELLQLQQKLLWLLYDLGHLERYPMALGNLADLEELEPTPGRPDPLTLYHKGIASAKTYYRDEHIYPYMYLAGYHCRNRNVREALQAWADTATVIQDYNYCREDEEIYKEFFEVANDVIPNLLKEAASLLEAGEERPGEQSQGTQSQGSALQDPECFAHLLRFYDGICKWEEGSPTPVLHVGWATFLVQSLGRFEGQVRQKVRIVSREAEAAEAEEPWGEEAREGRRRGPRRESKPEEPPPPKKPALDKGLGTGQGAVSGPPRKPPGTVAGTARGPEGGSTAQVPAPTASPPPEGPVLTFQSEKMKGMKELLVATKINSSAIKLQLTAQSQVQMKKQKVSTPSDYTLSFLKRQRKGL
B5: Speckle-type POZ protein (Homo sapiens), O43791 (parent)
chain: B1 chain
partner: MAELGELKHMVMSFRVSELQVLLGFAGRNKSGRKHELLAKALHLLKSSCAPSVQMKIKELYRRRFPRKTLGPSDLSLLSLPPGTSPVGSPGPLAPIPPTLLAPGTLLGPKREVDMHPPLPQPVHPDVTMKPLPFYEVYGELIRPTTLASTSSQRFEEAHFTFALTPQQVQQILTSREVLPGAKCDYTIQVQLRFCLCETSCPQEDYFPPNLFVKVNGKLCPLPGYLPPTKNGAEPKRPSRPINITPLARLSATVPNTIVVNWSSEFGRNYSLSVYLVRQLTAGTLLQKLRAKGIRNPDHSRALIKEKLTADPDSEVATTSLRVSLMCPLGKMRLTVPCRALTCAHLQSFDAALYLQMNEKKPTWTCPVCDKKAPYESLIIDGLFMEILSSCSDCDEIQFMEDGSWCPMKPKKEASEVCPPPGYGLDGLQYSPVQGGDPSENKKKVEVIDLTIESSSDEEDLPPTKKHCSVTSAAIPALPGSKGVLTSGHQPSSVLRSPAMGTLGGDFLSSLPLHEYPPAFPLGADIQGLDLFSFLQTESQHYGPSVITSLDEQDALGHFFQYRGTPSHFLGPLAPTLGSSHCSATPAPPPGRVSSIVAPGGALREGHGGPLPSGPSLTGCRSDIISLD
B6: Speckle-type POZ protein (Homo sapiens), O43791 (parent)
chain: B1 chain
partner: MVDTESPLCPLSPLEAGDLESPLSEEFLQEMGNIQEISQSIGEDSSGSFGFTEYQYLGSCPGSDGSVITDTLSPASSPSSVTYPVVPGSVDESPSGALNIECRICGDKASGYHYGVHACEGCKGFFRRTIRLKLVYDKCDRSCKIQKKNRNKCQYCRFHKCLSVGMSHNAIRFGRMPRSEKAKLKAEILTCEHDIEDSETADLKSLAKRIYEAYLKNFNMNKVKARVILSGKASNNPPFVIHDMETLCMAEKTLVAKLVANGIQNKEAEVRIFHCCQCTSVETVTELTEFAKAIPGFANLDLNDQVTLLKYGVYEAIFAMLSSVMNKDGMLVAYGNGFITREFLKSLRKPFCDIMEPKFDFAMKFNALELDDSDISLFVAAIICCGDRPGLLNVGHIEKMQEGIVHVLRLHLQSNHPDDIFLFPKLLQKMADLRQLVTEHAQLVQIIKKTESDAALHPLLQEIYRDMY

The variants in the first experiment derive from B1. Conditions: with gnds_human RALGDS.
On to F133L, for which the “effect of a mutation on the interaction” value was “with no effect”.

Another experiment covers variants of B1. Conditions: with gnds_human RALGDS. This is another data set of the same source.
On to F133V, for which the “effect of a mutation on the interaction” value is “with no effect”.

The variants in a further experiment derive from B1. Conditions: with gnds_human RALGDS. This is another data set of the same source.
For the variant Y87C, the “effect of a mutation on the interaction” value was “with no effect”.

In a further experiment the parent is B2. The settings on record: with snx25_human SNX25, Q9H3E2.
For the variant F133V, the “effect of a mutation on the interaction” value is “with no effect”.

The variants in a further experiment derive from B2. The settings on record: with snx25_human SNX25, Q9H3E2. The source holds these as a separate data set.
Consider F133L, for which the “effect of a mutation on the interaction” value is given as “with no effect”.

The variants in another experiment derive from B2. Conditions: with snx25_human SNX25, Q9H3E2. This is another data set of the same source.
As to F102C, the “effect of a mutation on the interaction” value is “with no effect”.

In a further experiment the parent is B2. The settings on record: with snx25_human SNX25, Q9H3E2. The source holds these as a separate data set.
As to Y87C, the “effect of a mutation on the interaction” value is given as “with no effect”.

In the next experiment the parent is B3. The settings on record: with sem4a_human SEMA4A.
For the variant F133V, the “effect of a mutation on the interaction” value is reported as “with no effect”.

A further experiment covers variants of B3. The settings on record: with sem4a_human SEMA4A. The source holds these as a separate data set.
For the variant F133L, the “effect of a mutation on the interaction” value is on record as “with no effect”.

Variants of B3 are the subject of the next experiment. Conditions: with sem4a_human SEMA4A. This is another data set of the same source.
In the case of Y87C, the “effect of a mutation on the interaction” value is recorded as “with no effect”.

A further experiment covers variants of B3. The settings on record: with sem4a_human SEMA4A. The source holds these as a separate data set.
On to F102C, for which the “effect of a mutation on the interaction” value was “with no effect”.

Variants of B4 are the subject of another experiment. The settings on record: with men1_human MEN1, O00255.
Take F102C: the “effect of a mutation on the interaction” value is “with no effect”.

The next experiment covers variants of B4. The settings on record: with men1_human MEN1, O00255. This is another data set of the same source.
Take Y87C: the “effect of a mutation on the interaction” value is on record as “with no effect”.

The variants in a further experiment derive from B4. The settings on record: with men1_human MEN1, O00255. The source holds these as a separate data set.
Turning to F133L, the “effect of a mutation on the interaction” value was “with no effect”.

The next experiment covers variants of B4. Conditions: with men1_human MEN1, O00255. This is another data set of the same source.
Regarding F133V, the “effect of a mutation on the interaction” value is listed as “with no effect”.

In the next experiment the parent is B5. Conditions: with pias3_human PIAS3, Q9Y6X2.
As to F133V, the “effect of a mutation on the interaction” value is “with no effect”.

In the next experiment the parent is B5. The settings on record: with pias3_human PIAS3, Q9Y6X2. The source holds these as a separate data set.
On to F133L, for which the “effect of a mutation on the interaction” value is given as “with no effect”.

Variants of B5 are the subject of a further experiment. The settings on record: with pias3_human PIAS3, Q9Y6X2. This is another data set of the same source.
For the variant Y87C, the “effect of a mutation on the interaction” value is listed as “with no effect”.

The next experiment covers variants of B5. The settings on record: with pias3_human PIAS3, Q9Y6X2. The source holds these as a separate data set.
F102C: the “effect of a mutation on the interaction” value is listed as “with no effect”.

A further experiment covers variants of B6. Conditions: with ppara_human PPARA.
For F133L, the “effect of a mutation on the interaction” value is reported as “with no effect”.

The variants in the next experiment derive from B6. Conditions: with ppara_human PPARA. This is another data set of the same source.
Take F133V: the “effect of a mutation on the interaction” value is given as “with no effect”.

Variants of B6 are the subject of a further experiment. Conditions: with ppara_human PPARA. This is another data set of the same source.
On to F102C, for which the “effect of a mutation on the interaction” value is “with no effect”.

The next experiment covers variants of B6. Conditions: with ppara_human PPARA. The source holds these as a separate data set.
With Y87C, the “effect of a mutation on the interaction” value is given as “with no effect”.

The record behind these values is IntAct's records for PubMed 35512704.
